Measured values taken from US20130109846A1 (published 2013).

Molecular target: human CD28 (human, UniProt P10747 19-220)
Assay: cell-based or functional assay

Row | Binder | Luciferase assay (EC50) [nM] | MLR assay (EC50) [nM]
1 | 1h-33 (other) VL: DIQMTQSPSSLSASVGDRVTITCRASSNIHNRLNWYQQKPGKAPKLLIYAASSLQSGVPSRFSGSGSGTDFTLTISSLQPEDFATYYCRQWIQPPWTFGQGTKVEIKR | 1600 | –
2 | 1h-18-6 (other) VL: DIQMTQSPSSLSASVGDRVTITCRASQYIGTSLNWYQQKPGKAPKLLIYQASLLQSGVPSRFSGSGYGTDFTLTISSLQPEDFATYYCQQLALRPMTFGQGTKVEIKR | 1400 | –
3 | 1h-34 (other) VL: DIQMTQSPSSLSASVGDRVTITCRASQYIGTSLAWYQQKPGKAPKLLIYHSSGLQSGVPLRFSGSGSGTDFTLTISSLQPEDFATYYCQQTALRPFTFGQGTKVEIKR | 2900 | –
4 | 1h-31 (other) VL: DIQMTQSPSSLSASVGDRVTITCRASQSIGYSLAWYQQKPGKAPKLLIYWVSSLQSGVPSRFSGSGSGTDFTLTISSLQPEDFATYYCQQTQRTPFTFGQGTKVEIKR | 800 | –
5 | 1h-32 (other) VL: DIQMTQSPSSLSASVGDRVTITCRASQNIGHGLAWYQQKPGKAPKLLIYWVSLLQSGVPSRFSGSGSGTDFTLTISSLQPEDFATYYCQQTLSKPFTFGQGTKVEIKR | 4500 | –
6 | 1h-99-1 (other) VH: EVQLLESGGGLVQPGGSLRLSCAASGFTFDSANMTWVRQAPGKGLEWVSWIEDTGTQTFYADSVRGRFTISRDNFKNTLYLQMNSLRAEDTAVYYCAKSPFGPLYGFDYRGQGTLVTVSS | 15 | 19
7 | 1h-99-224 (other) VH: EVQLLESGGGLVQPGGSLRLSCAASGFTFSHNNMSWVRQAPGKGLEWVSWIEDTGTQTFYADSVKGRFTISRDNSKNTLYLQMNSLRAEDTAVYYCAKSPFGPLYGFDYRGQGTLVTVSS | 15 | 28
8 | 1h-99-203 (other) VH: EVQLLESGGGLVQPGGSLRLSCAASGFTFYKANMSWARQAPGKGLEWVSWIEDTGTQTFYADSVKGRFTISRDNSKNTLYLQMNSLRAEDTAVYYCAKSPFGPLYGFDYRGQGTLVTVSS | 8 | 10
9 | 1h-99-201 (other) VH: EVQLLESGGGLVQPGGSLRLSCAASGFTFHRWNMSWARQAPGKGLEWVSWIEDTGTQTFYADSVKGRFTISRDNSKNTLYLQMNSLRAEDTAVYYCAKSPFGPLYGFDYRGQGTLVTVSS | 14 | 18
10 | 1h-99-222 (other) VH: EVQLLESGGGLVQPGGSLRLSCAASGFTFQRSNMSWVRQAPGKGLEWVSWIEDTGTQTFYADSVKGRFTISRDNSKNTLYLQMNSLRAEDTAVYYCAKSPFGPLYGFDYRGQGTLVTVSS | 16 | 28
11 | 1h-99-2112 (other) VH: EVQLLESGGGLVQPGGSLRLSCAASGFTFKDKNMSWARQAPGKGLEWVSWIEAPGVQTFYADSVRGRFTISRDNSKNTLYLQMNSLRAEDTAVYYCARSPFGPLYGFDYRGQGTLVTVSS | 3 | 2
12 | 1h-99-225 (other) VH: EVQLLESGGGLVQPGGSLRLSCAASGFTFRLQNMSWVRQAPGKGLEWVSWIEDTGTQTFYADSVKGRFTISRDNSKNTLYLQMNSLRAEDTAVYYCAKSPFGPLYGFDYRGQGTLVTVSS | 14 | 28
13 | 1h-99-218 (other) VH: EVQLLESGGGLVQPGGSLRLSCAASGFTFDKSNMSWARQAPGKGLEWVSWIEDTGTQTFYADSVKGRFTISRDNSKNTLYLQMNSLRAEDTAVYYCAKSPFGPLYGFDYRGQGTLVTVSS | 10 | 12
14 | 1h-99-217 (other) VH: EVQLLESGGGLVQPGGSLRLSCAASGFTFSRSNMSWGRQAPGKGLEWVSWIEDTGTQTFYADSVKGRFTISRDNSKNTLYLQMNSLRAEDTAVYYCAKSPFGPLYGFDYRGQGTLVTVSS | 12 | 15
15 | 1h-99-2114 (other) VH: EVQLLESGGGLVQPGGSLRLSCAASGFTFKDKNMSWARQAPGKGLEWVSWIEAIGVQTFYADSVKGRFTISRDNSKNTLYLQMNSLRAEDTAVYYCAKSPFGPLYGFDYRGQGTLVTVSS | 4 | 2
16 | 1h-99-2115 (other) VH: EVQLLESGGGLVQPGGSLRLSCAASGFTFKDKNMSWVRQAPGKGLEWVSWIEAPGVQTFYADSVRGRFTISRDNSKNTLYLQMNSLRAEDTAVYYCARSPFGPLYGFDYRGQGTLVTVSS | 3 | 12
17 | 1h-99-2113 (other) VH: EVQLLESGGGLVQPGGSLRLSCAASGFTFKDKNMSWARQAPGKGLEWVSWIEASGVQTFYADSVKGRFTISRDNSKNTLYLQMNSLRAEDTAVYYCAKSPFGPLYGFDYRGQGTLVTVSS | 5 | 3
18 | 1h-99-221 (other) VH: EVQLLESGGGLVQPGGSLRLSCAASGFTFARSNMSWVRQAPGKGLEWVSWIEDTGTQTFYADSVKGRFTISRDNSKNTLYLQMNSLRAEDTAVYYCAKSPFGPLYGFDYRGQGTLVTVSS | 12 | 17
19 | 1h-99-220 (other) VH: EVQLLESGGGLVQPGGSLRLSCAASGFTFYRSNMSWVRQAPGKGLEWVSWIEDTGTQTFYADSVKGRFTISRDNSKNTLYLQMNSLRAEDTAVYYCAKSPFGPLYGFDYRGQGTLVTVSS | 10 | 12
20 | 1h-99-226 (other) VH: EVQLLESGGGLVQPGGSLRLSCAASGFTFKSANMSWVRQAPGKGLEWVSWIEDTGTQTFYADSVKGRFTISRDNSKNTLYLQMNSLRAEDTAVYYCAKSPFGPLYGFDYRGQGTLVTVSS | 10 | 23
21 | 1h-99-2116 (other) VH: EVQLLESGGGLVQPGGSLRLSCAASGFTFKDKNMSWVRQAPGKGLEWVSWIEASGVQTFYADSVKGRFTISRDNSKNTLYLQMNSLRAEDTAVYYCAKSPFGPLYGFDYRGQGTLVTVSS | 5 | 4
22 | 1h-93-201 (other) VH: EVQLLESGGGLVQPGGSLRLSCAASGFTFSVSEMAWVRQAPGKGLEWVSSIMSNGIRTYYADSVKGRFTISRDNSKNTLYLQMNSLRAEDTAVYYCARRESSSSRTVFDYWGQGTLVTVSS | 182 | 18
23 | 1h-93-204 (other) VH: EVQLLESGGGLVQPGGSLRLSCAASGFTFYTAEMAWVRQAPGKGLEWVSSIMSNGIRTYYADSVKGRFTISRDNSKNTLYLQMNSLRAEDTAVYYCARRESSSSRTVFDYWGQGTLVTVSS | 176 | 1200
